Tests used:
[1] = molecular target: Hna with a C-terminal GFP tag; assay: fluorescence anisotropy; settings: read off a plot
[2] = molecular target: phage-encoded single-stranded DNA-binding protein of phage 5 A (5 A SSB), wild type (phage 5 A (T7-like podovirus)); assay: native gel or EMSA; native stoichiometry of wild-type 5 A SSB and escape mutants in the absence of DNA; each protein allowed to oligomerize for 1 hour; non-denaturing 4-20% Tris-glycine gel, 4 °C; part of the wild-type sample melted at 95 °C for the monomeric state
[3] = molecular target: 5 A SSB escape mutant E49A (phage 5 A (T7-like podovirus)); assay: as above
[4] = molecular target: 5 A SSB escape mutant E38K (phage 5 A (T7-like podovirus)); assay: as above
[5] = molecular target: Hna (helicase-nuclease abortive infection), wild type, Sinorhizobium meliloti (Sinorhizobium meliloti)
[6] = molecular target: Hna (helicase-nuclease abortive infection), wild type, Sinorhizobium meliloti; assay: fluorescence anisotropy competition; settings: in the presence of ATP; cold SSB added to the saturated Hna/GFP-SSB heterodimer; value read at the highest cold SSB concentration (about 2e3 nM); lower …; parent: est. 75; read off a plot
[7] = molecular target: 5 A SSB escape mutant E201K (phage 5 A (T7-like podovirus)); assay: native gel or EMSA; native stoichiometry of wild-type 5 A SSB and escape mutants in the absence of DNA; each protein allowed to oligomerize for 1 hour; non-denaturing 4-20% Tris-glycine gel, 4 °C; part of the wild-type sample melted at 95 °C for the monomeric state
[8] = saturating GFP-Hna homodimer, value read at the highest SSB concentration (about 2e4 nM), starting anisotropy about 100-110 mA, lower anisotropy = more …, parent: est. 22

phage-encoded single-stranded DNA-binding protein of phage 5 A (5 A SSB), wild type E49A
response [1, 8]: 65 mA

phage-encoded single-stranded DNA-binding protein of phage 5 A (5 A SSB), wild type E38K
response [1, 8]: 99 mA

phage-encoded single-stranded DNA-binding protein of phage 5 A (5 A SSB), wild type (natural protein)
stoichiometry N [2]: 2

5 A SSB escape mutant E49A (natural protein)
stoichiometry N [3]: 2

5 A SSB escape mutant E38K (natural protein)
stoichiometry N [4]: 4

Hna (helicase-nuclease abortive infection), wild type, Sinorhizobium meliloti (enzyme)
ssDNA cleavage rate of the Hna dimer mutant (T30A/D31A/P34A) compared to wild-type Hna, capillary electrophoresis [5]: > 10 fold

phage-encoded single-stranded DNA-binding protein of phage 5 A (5 A SSB), wild type E201K
response [6]: 130 mA | response [1, 8]: 110 mA

Hna (helicase-nuclease abortive infection), wild type, Sinorhizobium meliloti T30A; D31A; P34A
response ([1]; +ATP, GFP-Hna at fixed concentration, value is the plateau of the fitted curve at high cold Hna concentration, parent: est. 98): 10 mA

5 A SSB escape mutant E201K (natural protein)
stoichiometry N [7]: 4

— article PMC13381803, “Phage-encoded factor stimulates DNA degradation by the Hna anti-phage defense system” (Nature Communications, 2026)
